The source of these data is article PMC4517146, “Enzymatic Enantioselective Decarboxylative Protonation of Heteroaryl Malonates” (Chemistry (Weinheim an Der Bergstrasse, Germany), 2015).

Common to all, as to assay: spectrophotometric decarboxylation kinetics
Type in all cases: biochemical, Bordetella bronchiseptica
What all share (conditions): assay conditions in Supporting Information

Substrate in data set [1]: Cc1ccc(C(O)(C(=O)O)C(=O)O)o1
Substrate in data set [2]: O=C(O)C(C(=O)O)c1ccco1
Substrate in data set [3]: O=C(O)C(O)(C(=O)O)c1cc2ccccc2o1
Substrate in data set [4]: O=C(O)C(O)(C(=O)O)c1ccc2sccc2c1
Substrate in data set [5]: O=C(O)C(O)(C(=O)O)c1cccnc1
Substrate in data set [6]: O=C(O)C(O)(C(=O)O)c1ccco1
Substrate in data set [7]: O=C(O)C(O)(C(=O)O)c1cccs1

B1: aryl/alkenyl malonate decarboxylase (AMDase) (Bordetella bronchiseptica) (protein)
chain: MQQASTPTIGMIVPPAAGLVPADGARLYPDLPFIASGLGLGSVTPEGYDAVIESVVDHARRLQKQGAAVVSLMGTSLSFYRGAAFNAALTVAMREATGLPCTTMSTAVLNGLRALGVRRVALATAYIDDVNERLAAFLAEESLVPTGCRSLGITGVEAMARVDTATLVDLCVRAFEAAPDSDGILLSCGGLLTLDAIPEVERRLGVPVVSSSPAGFWDAVRLAGGGAKARPGYGRLFDES
notes: AMDase, construct details only in Supporting Information
Take B1: the Michaelis constant (Km) in data set [1] amounted to 9.8 ± 2.2 mM; in data set [2], 10.1 ± 4.5 mM; in data set [3], 8.2 ± 1.6 mM; in data set [4], 3.1 ± 0.17 mM; in data set [5], 6.4 ± 0.6 mM; in data set [6], 8.6 ± 2.1 mM. Further, the Michaelis constant (Km) in data set [7] stood at 4.3 ± 0.5 mM. Moreover, the kcat in data set [1] stood at 37.1 ± 8.8 s⁻¹; in data set [3], 278 ± 33.9 s⁻¹; in data set [4], 148 ± 4.6 s⁻¹; in data set [5], 225 ± 36.3 s⁻¹; in data set [6], 61.9 ± 6 s⁻¹; in data set [7], 166 ± 10.6 s⁻¹. For the same protein, the specificity constant (kcat/Km) stood at 3800 ± 500 M⁻¹ s⁻¹ in data set [1]; 33900 ± 320 M⁻¹ s⁻¹ in data set [3]; 48300 ± 170 M⁻¹ s⁻¹ in data set [4]; 35300 ± 250 M⁻¹ s⁻¹ in data set [5]; 6400 ± 400 M⁻¹ s⁻¹ in data set [6]; 38600 ± 200 M⁻¹ s⁻¹ in data set [7].

As usually defined, the Km is the concentration of substrate that gives half-maximal velocity. As a reminder, the kcat is the number of substrate molecules converted per active site and unit of time at saturation. One may read the kcat/Km as the turnover number divided by the Michaelis constant.
